Test [1] concerns the target human nerve growth factor (NGF) (human) (UniProt P01138). Description: BIACORE SPR. In general terms: SPR reads the build-up and loss of mass on a sensor chip optically.
Test [2] deals with mouse NGF (mNGF) (mouse) (UniProt P01139). Description: BIACORE SPR.
The target of test [3] is rat NGF (rNGF) (rat) (UniProt P25427). Briefly: BIACORE SPR.
For test [4], the target named is human nerve growth factor (NGF) (human) (UniProt P01138). Briefly: cell-based or functional assay.
Sequence of human nerve growth factor (NGF) (human) (P01138 122-241 limits assumed): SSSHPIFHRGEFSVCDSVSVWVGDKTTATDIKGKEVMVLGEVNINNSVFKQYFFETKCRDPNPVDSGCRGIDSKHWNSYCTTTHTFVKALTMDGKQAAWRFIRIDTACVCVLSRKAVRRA
In test [5] the target is human neurotrophin-3 (NT-3) (human) (UniProt P20783). Description: cell-based or functional assay.
Sequence of human neurotrophin-3 (NT-3) (human) (P20783 139-257 limits assumed): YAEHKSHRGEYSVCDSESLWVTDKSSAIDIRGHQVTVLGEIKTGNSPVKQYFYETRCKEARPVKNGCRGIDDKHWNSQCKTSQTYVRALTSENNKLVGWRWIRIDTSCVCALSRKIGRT
The target of test [6] is human nerve growth factor (NGF) (human) (UniProt P01138). Briefly: BIACORE SPR; purified mAb.
Test [7] addresses mouse NGF (mNGF) (mouse) (UniProt P01139). Description: BIACORE SPR; purified mAb.
The target in test [8] is rat NGF (rNGF) (rat) (UniProt P25427). Briefly: BIACORE SPR; purified mAb.
Test [9] addresses human neurotrophin-3 (NT-3) (human) (UniProt P20783). Briefly: BIACORE SPR; NT-3 1.25 nM to 40 nM.
Test [10] addresses human nerve growth factor (NGF) (human) (UniProt P01138). Description: BIACORE SPR; mAb captured, 20 nM NGF.
Test [11] has as its target human neurotrophin-3 (NT-3) (human) (UniProt P20783). Briefly: BIACORE SPR; mAb captured, 20 nM NT-3.
For test [12], the target named is human nerve growth factor (NGF) (human) (UniProt P01138). Description: BIACORE SPR; complex dissociation half-life.
The target is the same in test [13]. Briefly: BIACORE SPR; mAb captured, human NGF injected.
Test [14] shares this target. Briefly: BIACORE blocking; % free NGF bound to p75-hFc chip.
For test [15] the target is unchanged. Briefly: BIACORE blocking; % free NGF bound to TrkA-hFc chip.
For test [16], the target named is human neurotrophin-3 (NT-3) (human) (UniProt P20783). Briefly: BIACORE; 20 nM NT-3 + 500 nM agent, % NT-3 bound to p75-hFc chip.
The target is the same in test [17]. Description: BIACORE; 20 nM NT-3 + 500 nM agent, % NT-3 bound to TrkA-hFc chip.
Test [18] has the same target. Briefly: BIACORE; 20 nM NT-3 + 500 nM agent, % NT-3 bound to TrkB-hFc chip.
Test [19] shares this target. Description: BIACORE; 20 nM NT-3 + 500 nM agent, % NT-3 bound to TrkC-hFc chip.
Test [20] concerns the target human nerve growth factor (NGF) (human) (UniProt P01138). Briefly: BIACORE blocking; negative control, % free NGF bound to p75-hFc chip.
The target is the same in test [21]. Briefly: BIACORE blocking; negative control, % free NGF bound to TrkA-hFc chip.
Test [22] addresses human neurotrophin-3 (NT-3) (human) (UniProt P20783). Briefly: BIACORE; 20 nM NT-3 + 500 nM agent, % NT-3 bound to p75-hFc chip (reference).
Test [23] has the same target. Description: BIACORE; 20 nM NT-3 + 500 nM agent, % NT-3 bound to TrkA-hFc chip (reference).
For test [24] the target is unchanged. Briefly: BIACORE; 20 nM NT-3 + 500 nM agent, % NT-3 bound to TrkB-hFc chip (reference).
Test [25] shares this target. Description: BIACORE; 20 nM NT-3 + 500 nM agent, % NT-3 bound to TrkC-hFc chip (reference).

These results are taken from patent US20120164688A1.

Sequence of mouse NGF (mNGF) (mouse) (P01139 122-241 limits assumed): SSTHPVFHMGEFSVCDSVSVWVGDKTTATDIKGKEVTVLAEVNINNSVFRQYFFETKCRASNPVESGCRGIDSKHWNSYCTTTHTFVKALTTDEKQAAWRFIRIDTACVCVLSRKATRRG
Sequence of rat NGF (rNGF) (rat) (P25427 122-241 limits assumed): as the sequence (P01139 122-241 limits assumed) above, with A40G, R50K, S61P, E94D, T117A counted along it

Consider “humanized anti-human NGF monoclonal antibody E3 ("RN624") (tanezumab; CAS Registry No. 880266-57-9)”, for which the Kd in test [1] is 1.25 pM; in test [2] it was 1.4 pM; in test [3] it was 1.5 pM; in [6], 1.25 pM; in [7], 1.4 pM; in test [8], 1.51 pM. Also, the Kd worked out at 1100 pM in test [9], 1.3 pM in test [10], 1100 pM in test [11] and 1.3 pM in [13]. Further, in test [4], the IC50 (pM), PC12 SRE-luciferase is 4.9 pM. This substance showed an MG87 IC50 in [4] of less than 186 pM. Further, the PC12 IC50 in test [4] turned out to be 21 pM. Besides, the IC50, HEK293-TrkC SRE-luciferase in test [5] is 150000 to 200000 pM. The substance also gave an IC50, PC12 SRE-luciferase with 75 nM NT-3 in test [5] of 105000 pM. Also, the t1/2 in test [6] and in [12] was 35 h throughout. For the same substance, the % Binding p75-hFc in [14] was 16%. In [15], this substance displayed a % Binding TrkA-hFc of 10%. The % binding was found to be 19% in [16], 7% in test [17], 8% in test [18] and 8% in test [19].
The substance “IgG1 control (AVASTIN®; Genentech, CA) (antibody)” yielded a % Binding p75-hFc in test [20] of 116%. The substance further registered a % Binding TrkA-hFc in test [21] of 116%. Further, the % binding in [22], in test [23], in test [24] and in test [25] was 100% each time.

By Kd is commonly meant the free concentration of one partner at which half of the binding sites on the other are occupied at equilibrium, for simple one-to-one binding. A lower Kd goes with higher affinity.
